One may read the pKd as −log10 of the Kd, conventionally taken in molar units.

Results on one substance are retold here after US20070249813A1.

Assay [1] addresses recombinant human TNFα (human) (UniProt P01375). Kind of assay: cell-based or functional assay.
For assay [2], the target named is biotinylated recombinant human TNFα (human) (UniProt P01375). Kind of assay: SPR (BIAcore), [Ab] 50 nM over immobilized biotinylated rhTNFα.
The target is the same in assay [3]. Kind of assay: SPR (BIAcore), [Ab] 6 nM over immobilized biotinylated rhTNFα. In general terms: In SPR one partner is held on a chip, and binding of the other changes the refractive index at the surface.
The target is the same in assay [4]. The assay is described as follows: summary table of binding properties for hTNFα (assay not named there).
The target is the same in assay [5]. Kind of assay: SPR (BIAcore), [Ab] 25 nM over immobilized biotinylated rhTNFα.
Assay [6] has the same target. The assay is described as follows: SPR (BIAcore), [Ab] 100 nM over immobilized biotinylated rhTNFα.
For assay [7] the target is unchanged. The assay is described as follows: SPR (BIAcore), [Ab] 13 nM over immobilized biotinylated rhTNFα.
Assay [8] shares this target. Kind of assay: SPR (BIAcore), [Ab] 200 nM over immobilized biotinylated rhTNFα.
For assay [9] the target is unchanged. Kind of assay: SPR (BIAcore), [Ab] 3 nM over immobilized biotinylated rhTNFα.
For assay [10] the target is unchanged. The assay is described as follows: SPR (BIAcore), [Ab] 400 nM over immobilized biotinylated rhTNFα.

pKd: −log10 of the molar value.

Chain of biotinylated recombinant human TNFα (human) (P01375 77-233 limits assumed): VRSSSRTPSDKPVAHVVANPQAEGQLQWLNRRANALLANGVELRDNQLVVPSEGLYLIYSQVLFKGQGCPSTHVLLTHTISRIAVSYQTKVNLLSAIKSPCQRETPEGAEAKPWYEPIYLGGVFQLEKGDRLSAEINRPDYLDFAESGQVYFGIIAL
Chain of recombinant human TNFα (human) (P01375 77-233 limits assumed): as above

For MAK 195 F(ab′)2 fragment (antibody), in assay [1], the IC50, neutralization of TNFα-induced L929 cytotoxicity worked out at 0.062 nM. For the same substance, the Ab, bound, RUs in assay [2] worked out at 1110 RU; in [3], 433 RU; in assay [5] it was 957 RU; in assay [6], 1140 RU; in [7], 708 RU; in [8], 1080 RU. In addition, the figures for the Ab, bound, RUs in assay [9] and in assay [10] were 231 RU and 881 RU, respectively. Also, the negative logarithm of the Kd (pKd) in assay [4] was 9.34. Besides, in [4], the Stoichiometry amounted to 1.4.
